Where two headings read alike, the source gives them in different places. One block for each substance: values may come before it.
Columns and labels:
[1] = target: recombinant F-WT DRADA protein (full-length 140 kD human DRADA protein carrying an epitope-tag peptide FLAG at the NH2-terminal) (human)
[2] = target: T1, DRADA (dsRNA adenosine deaminase, purified 93/88/83 kD forms) (Bos taurus) (UniProt F1MUM9); conditions: assay not described; species/form of DRADA not stated in the passage
T1 sequence: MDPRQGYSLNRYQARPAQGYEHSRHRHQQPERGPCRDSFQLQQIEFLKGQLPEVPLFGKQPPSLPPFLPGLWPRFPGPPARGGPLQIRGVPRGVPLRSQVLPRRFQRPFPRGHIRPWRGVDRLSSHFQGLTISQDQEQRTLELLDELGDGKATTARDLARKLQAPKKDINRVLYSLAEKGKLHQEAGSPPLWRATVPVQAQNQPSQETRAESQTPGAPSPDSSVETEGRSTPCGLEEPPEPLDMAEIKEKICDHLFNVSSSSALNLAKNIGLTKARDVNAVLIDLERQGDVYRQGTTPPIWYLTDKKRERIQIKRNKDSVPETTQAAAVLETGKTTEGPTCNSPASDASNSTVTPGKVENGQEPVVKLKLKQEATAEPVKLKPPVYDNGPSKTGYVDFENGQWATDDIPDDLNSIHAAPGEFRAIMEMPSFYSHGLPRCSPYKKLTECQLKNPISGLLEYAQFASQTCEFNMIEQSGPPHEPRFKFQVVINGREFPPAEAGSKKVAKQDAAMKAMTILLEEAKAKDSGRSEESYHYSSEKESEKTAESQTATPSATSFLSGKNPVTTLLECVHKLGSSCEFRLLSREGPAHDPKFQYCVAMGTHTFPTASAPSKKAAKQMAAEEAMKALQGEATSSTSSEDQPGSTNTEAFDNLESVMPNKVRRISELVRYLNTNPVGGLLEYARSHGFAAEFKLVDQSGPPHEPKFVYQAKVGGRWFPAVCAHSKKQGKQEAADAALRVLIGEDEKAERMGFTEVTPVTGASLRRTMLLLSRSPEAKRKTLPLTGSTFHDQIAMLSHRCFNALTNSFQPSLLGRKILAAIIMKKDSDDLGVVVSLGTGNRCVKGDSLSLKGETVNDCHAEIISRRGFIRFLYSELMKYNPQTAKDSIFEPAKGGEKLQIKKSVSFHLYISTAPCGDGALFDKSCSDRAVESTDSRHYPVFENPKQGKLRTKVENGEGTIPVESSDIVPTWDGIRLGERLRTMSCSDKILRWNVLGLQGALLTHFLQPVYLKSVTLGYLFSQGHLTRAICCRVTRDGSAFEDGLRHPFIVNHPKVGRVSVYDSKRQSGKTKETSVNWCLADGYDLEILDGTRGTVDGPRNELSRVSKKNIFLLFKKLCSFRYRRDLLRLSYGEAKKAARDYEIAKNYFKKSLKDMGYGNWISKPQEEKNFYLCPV

[3] = target: T2, F-WT DRADA (Homo sapiens) (UniProt P55265); conditions: editing at intronic +60 site by DRADA alone; no Q/R editing alone, up to 34% Q/R with 293 extract cofactor
T2 sequence: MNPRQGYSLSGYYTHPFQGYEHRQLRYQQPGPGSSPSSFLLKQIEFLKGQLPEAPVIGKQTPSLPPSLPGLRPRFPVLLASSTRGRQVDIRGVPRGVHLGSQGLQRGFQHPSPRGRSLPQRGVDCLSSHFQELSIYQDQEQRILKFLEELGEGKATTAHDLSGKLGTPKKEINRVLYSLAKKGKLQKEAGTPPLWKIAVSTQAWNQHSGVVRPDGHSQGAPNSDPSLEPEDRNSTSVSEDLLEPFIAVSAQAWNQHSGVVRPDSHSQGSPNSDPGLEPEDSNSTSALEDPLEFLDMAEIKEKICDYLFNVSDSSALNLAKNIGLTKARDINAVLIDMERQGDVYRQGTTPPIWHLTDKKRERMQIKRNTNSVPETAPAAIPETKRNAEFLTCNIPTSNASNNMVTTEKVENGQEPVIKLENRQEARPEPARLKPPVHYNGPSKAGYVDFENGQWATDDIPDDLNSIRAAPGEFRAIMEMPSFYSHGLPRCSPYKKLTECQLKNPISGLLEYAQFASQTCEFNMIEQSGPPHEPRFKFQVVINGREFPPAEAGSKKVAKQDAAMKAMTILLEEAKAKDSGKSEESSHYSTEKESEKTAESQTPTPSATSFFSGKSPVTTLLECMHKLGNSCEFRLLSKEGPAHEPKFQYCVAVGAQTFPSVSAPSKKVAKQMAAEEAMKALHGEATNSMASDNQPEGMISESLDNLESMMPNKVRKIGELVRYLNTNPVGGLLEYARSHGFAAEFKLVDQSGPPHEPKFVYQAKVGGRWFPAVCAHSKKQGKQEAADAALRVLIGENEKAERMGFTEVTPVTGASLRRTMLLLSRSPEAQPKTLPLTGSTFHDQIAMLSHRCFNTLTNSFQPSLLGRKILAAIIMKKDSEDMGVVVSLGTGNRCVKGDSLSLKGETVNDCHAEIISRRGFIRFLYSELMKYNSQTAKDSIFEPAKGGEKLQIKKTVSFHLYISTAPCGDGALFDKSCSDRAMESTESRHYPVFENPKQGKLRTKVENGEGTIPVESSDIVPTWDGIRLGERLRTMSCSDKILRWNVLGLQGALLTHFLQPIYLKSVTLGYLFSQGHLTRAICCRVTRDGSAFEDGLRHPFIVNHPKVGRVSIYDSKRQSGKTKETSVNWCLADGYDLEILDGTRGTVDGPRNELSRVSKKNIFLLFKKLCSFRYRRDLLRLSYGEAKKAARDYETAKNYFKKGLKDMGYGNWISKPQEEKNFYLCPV

[4] = target: recombinant F-WT DRADA protein (full-length 140 kD human DRADA protein carrying an epitope-tag peptide FLAG at the NH2-terminal) (human); remark: listed apart in the source

Q/R site editing of synthetic GluR-B RNA (in vitro editing, primer extension assay) [1]: 14%
Substance: 293 nuclear extract (unidentified cofactor protein(s) of 293 human embryonic kidney cells) (pool or library)

Substance: 575 bp dsRNA
Kd [2]: 0.23 nM

Substance: GluR-B Bmini RNA (745 nt)
activity [3]: < 79%

Q/R site editing of synthetic GluR-B RNA (in vitro editing, primer extension assay) [4]: 63%
Substance: HeLa nuclear extract (unidentified cofactor protein(s)) (pool or library)

— US5763174
